Molecular target: DEAD-box RNA helicase DDX6 (human (endogenous in 293T)) (UniProt P26196)
Test: proximity ligation

Sequence of UniProt P26196 (P26196 whole entry): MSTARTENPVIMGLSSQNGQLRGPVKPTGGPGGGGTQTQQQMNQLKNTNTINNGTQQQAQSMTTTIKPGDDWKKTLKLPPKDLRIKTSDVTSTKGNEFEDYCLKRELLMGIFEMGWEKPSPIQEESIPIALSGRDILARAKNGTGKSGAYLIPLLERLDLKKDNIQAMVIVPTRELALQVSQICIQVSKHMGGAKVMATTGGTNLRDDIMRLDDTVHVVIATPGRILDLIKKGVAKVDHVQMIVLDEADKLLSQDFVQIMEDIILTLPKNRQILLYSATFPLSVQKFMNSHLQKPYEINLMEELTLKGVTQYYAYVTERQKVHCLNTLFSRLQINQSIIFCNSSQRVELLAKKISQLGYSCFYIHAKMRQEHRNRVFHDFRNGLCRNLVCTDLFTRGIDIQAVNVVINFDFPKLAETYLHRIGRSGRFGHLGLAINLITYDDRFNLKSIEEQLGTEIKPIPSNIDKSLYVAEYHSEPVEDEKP

| Substance | PLA spots per Z stack image (PLA spots per Z stack image) | PLA spots per cell (PLA spots per cell) |
| --- | --- | --- |
| G2A Gag (HIV-1 Gag with glycine 2 changed to alanine, expressed from LAI provirus) (natural protein) | 56 | 50 |
| HIV-1 Gag, wild type (expressed from LAI provirus) (natural protein) |  | 50 |

Source: paper doi:10.1101/183855
